The target of test [1] is His6-VanSSC (full-length VanS sensor histidine kinase from Streptomyces coelicolor) (Streptomyces coelicolor) (UniProt Q9X942). In words: SEC; analytical gel filtration on Superose 12 10/300; 20 mM HEPES pH 7.8, 200 mM NaCl (legend: 300 mM NaCl), 0.075% DPC; elution volume compared with protein standards. On the technique in general: In gel filtration, larger molecules generally elute earlier.

Test [2] shares this target. In words: native gel or EMSA. Background: In EMSA bound probe runs differently from free probe, usually more slowly.

The term stoichiometry N denotes a count of units in the complex or per binding partner.

As for “His6-VanSSC (full-length VanS sensor histidine kinase from Streptomyces coelicolor) (from UniProt Q9X942 1-364) (enzyme)”, the stoichiometry N in test [1] and in test [2] was 2 each time.
